We go through two molecules from PMC7202667, “UNBRANCHED3 Expression and Inflorescence Development is Mediated by UNBRANCHED2 and the Distal Enhancer, KRN4, in Maize”.

This data set addresses T1, UB2 (UNBRANCHED2), GST fusion (Zea mays, UniProt A0A804LTB0 =M+82-402, internal_change).
T1 sequence: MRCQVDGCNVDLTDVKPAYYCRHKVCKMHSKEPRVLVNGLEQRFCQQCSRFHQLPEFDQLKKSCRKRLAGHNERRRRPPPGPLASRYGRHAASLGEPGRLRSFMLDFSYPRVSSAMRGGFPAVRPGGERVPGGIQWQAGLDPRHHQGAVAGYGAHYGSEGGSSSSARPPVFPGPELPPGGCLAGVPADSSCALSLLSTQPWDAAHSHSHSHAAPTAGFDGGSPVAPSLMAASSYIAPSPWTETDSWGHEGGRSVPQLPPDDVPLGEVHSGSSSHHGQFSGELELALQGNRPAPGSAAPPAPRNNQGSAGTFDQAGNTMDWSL
Kind of data set: EMSA; poly(dI-dC), 5 mM MgCl2; EMSA: 10 mM Tris pH 7.5, 50 mM KCl, 1 mM DTT, 5 mM MgCl2, 2.5% glycerol, poly(dI-dC), 0.05% NP-40; 20-40 ng protein, probe 10 fM (so in the source); room temperature. Particulars: protein: recombinant; tags: N-GST (pGEX-4T-1); label: 5'-biotin; blunt. On the technique in general: Mobility shift assays separate free from complexed probe on a gel.

B1: KRN4-P4 probe (EP4) (dsDNA)
DNA 1: GCGTGTTGCCTACTTGCACTAGAGAGTACGTGAGGCAAACCAAATGTTTTCTAGCGAAC
DNA 2: GTTCGCTAGAAAACATTTGGTTTGCCTCACGTACTCTCTAGTGCAAGTAGGCAACACGC
Turning to B1, the binding result is listed as “binds”.

B2: pUB3-P1 probe (EPUB3) (dsDNA)
DNA 1: GCCGAGGGCTTTTTGTAGACGCCAGGTACTTGCGCTTGTGGCGGCGAGCCGAGCG
DNA 2: CGCTCGGCTCGCCGCCACAAGCGCAAGTACCTGGCGTCTACAAAAAGCCCTCGGC
Turning to B2, the binding result is “binds”.
